Our source for the stoichiometry N values is article PMC4164012.

For the test, the target named is T1, recombinant E. coli L-asparaginase II (E. coli K-12 (JM109)), P00805.
T1 chain: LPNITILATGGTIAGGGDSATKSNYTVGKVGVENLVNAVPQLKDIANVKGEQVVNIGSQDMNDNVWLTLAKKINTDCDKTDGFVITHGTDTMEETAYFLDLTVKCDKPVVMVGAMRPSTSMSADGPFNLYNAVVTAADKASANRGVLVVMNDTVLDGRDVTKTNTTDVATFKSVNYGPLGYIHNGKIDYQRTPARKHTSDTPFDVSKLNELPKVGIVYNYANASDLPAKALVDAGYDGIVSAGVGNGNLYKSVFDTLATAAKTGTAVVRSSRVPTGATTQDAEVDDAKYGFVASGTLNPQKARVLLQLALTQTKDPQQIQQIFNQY
The experiment in a line: SEC; analytical HPLC gel filtration on Bio-Sep S-2000, 50 mM Tris-HCl, 10 mM NaCl, pH 7.5; 20 ul of 1.5 mg/ml injected, 1 ml/min; mass from calibration with marker proteins. The following applies: remark: other sources report otherwise.

B1: recombinant E. coli L-asparaginase II, P00805 23-348 (enzyme)
chain: LPNITILATGGTIAGGGDSATKSNYTVGKVGVENLVNAVPQLKDIANVKGEQVVNIGSQDMNDNVWLTLAKKINTDCDKTDGFVITHGTDTMEETAYFLDLTVKCDKPVVMVGAMRPSTSMSADGPFNLYNAVVTAADKASANRGVLVVMNDTVLDGRDVTKTNTTDVATFKSVNYGPLGYIHNGKIDYQRTPARKHTSDTPFDVSKLNELPKVGIVYNYANASDLPAKALVDAGYDGIVSAGVGNGNLYKSVFDTLATAAKTGTAVVRSSRVPTGATTQDAEVDDAKYGFVASGTLNPQKARVLLQLALTQTKDPQQIQQIFNQY
As to B1, the stoichiometry N worked out at 4.

A word on the stoichiometry N: it is the number of molecules, sites or subunits per partner or assembly.
